Measurements published in patent US20230219996A1.

How the values were obtained:
[1] = biological target: SARS-CoV-2 spike (B.1.351, South Africa, Beta) (SARS-CoV-2); assay: MSD V-PLEX ACE2 kit, sVNT, positive control; competitor ACE2 (mouse study)
[2] = biological target: SARS-CoV-2 spike (P.1, Brazil, Gamma) (SARS-CoV-2); assay: as above
[3] = biological target: SARS-CoV-2 spike (B.1.1.7, UK, Alpha) (SARS-CoV-2); assay: as above
[4] = biological target: SARS-CoV-2 spike (B.1.351, South Africa, Beta) (SARS-CoV-2); assay: MSD V-PLEX ACE2 kit, sVNT, positive control; competitor ACE2 (NHP study)
[5] = biological target: SARS-CoV-2 spike (P.1, Brazil, Gamma) (SARS-CoV-2); assay: as above
[6] = biological target: SARS-CoV-2 spike (B.1.1.7, UK, Alpha) (SARS-CoV-2); assay: as above

Measured: ACE2-binding percent inhibition

ACE2 Calibration Reagent (included in the MSD kit)
100%: [1] | [2] | [3] | [4] | [5] | [6]
